Measurements reported in patent US20150276749A1 (KONICA MINOLTA, published 2015).

How the values were obtained:
[1] = biological target: T1, soluble-type human DSG3-mouse IgG2aFc fusion protein (human; mouse, UniProt P32926 50-616); assay: sandwich ELISA, luminescence over blank; immobilized DF151, detection DF151; antigen 25000 pg/mL
T1 construct: also called human desmoglein 3; desmoglein 3 standard; not shown: mouse IgG2a Fc, printed 'mouse IgG2aFc' and 'mouse IgG2 constant region'
T1 sequence: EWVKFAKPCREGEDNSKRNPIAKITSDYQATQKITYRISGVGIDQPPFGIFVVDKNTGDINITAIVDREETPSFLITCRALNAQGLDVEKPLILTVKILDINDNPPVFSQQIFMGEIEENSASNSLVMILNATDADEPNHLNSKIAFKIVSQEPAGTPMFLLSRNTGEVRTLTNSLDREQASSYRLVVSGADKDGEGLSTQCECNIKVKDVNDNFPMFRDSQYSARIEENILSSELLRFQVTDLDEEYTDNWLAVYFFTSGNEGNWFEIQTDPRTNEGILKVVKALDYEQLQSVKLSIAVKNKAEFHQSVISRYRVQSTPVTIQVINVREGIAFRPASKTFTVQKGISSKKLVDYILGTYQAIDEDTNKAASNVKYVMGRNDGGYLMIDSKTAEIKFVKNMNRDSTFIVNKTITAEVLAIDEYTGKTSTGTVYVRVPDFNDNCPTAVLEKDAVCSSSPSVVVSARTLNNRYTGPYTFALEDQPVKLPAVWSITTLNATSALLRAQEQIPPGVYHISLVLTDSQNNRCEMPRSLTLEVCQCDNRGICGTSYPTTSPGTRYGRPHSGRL
Protocol: (§1) Subsequently, the antigen solutions having the above-described concentrations were each added to the plate in an amount of 50 μL/well, and the plate was incubated at room temperature for 1 hour. Then, the antigen solution was removed, and the plate was washed with 0.05% Tween 20-PBS three times. Thereafter, the 1-μg/mL biotinylated antibody solution was added in an amount of 50 μL/well, and the plate was incubated at room temperature for 1 hour.
(§2) Then, after removing the streptavidin-HRP solution and washing the plate with 0.05% Tween 20-PBS three times, a substrate solution (SuperSignal ELISA Femto Maximum Sensitivity Substrate (registered trademark); Pierce Biotechnology, Inc.) was added in an amount of 100 μL/well. One minute thereafter, the luminescence intensity was measured using a luminometer, Fluoroskan Ascent FL (trade name, Thermo Electron Corporation).
(§3) The numerical values shown in Table 1 represent the minimum values of the antigen solution concentration having an S/N ratio of higher than 2 (hereinafter, referred to as “detection limit concentration”) and the unit of the numerical values is pg/mL. The S/N ratio was determined by dividing the luminescence intensity at the respective antigen solution concentrations ([…]) by the luminescence intensity of an antigen-free blank antigen solution (0 μg/mL).

[2] = biological target: T1, soluble-type human DSG3-mouse IgG2aFc …; assay: sandwich ELISA, luminescence over blank; immobilized DF151, detection D219-3; antigen 25000 pg/mL
Protocol: as §1, §2, §3

[3] = biological target: T1, soluble-type human DSG3-mouse IgG2aFc …; assay: sandwich ELISA, luminescence over blank; immobilized DF151, detection MAB1720; antigen 1 pg/mL
Protocol: as §1, §2
The numerical values shown in Table 1 represent the minimum values of the antigen solution concentration having an S/N ratio of higher than 2 (hereinafter, referred to as “detection limit concentration”) and the unit of the numerical values is pg/mL. […]

[4] = biological target: T1, soluble-type human DSG3-mouse IgG2aFc …; assay: SPFS sandwich; immobilized DF151, detection D219-3; antigen 1,000 pg/mL (µg/mL in the source)
Protocol: (§4) Once again, a Tris-buffered saline (TBS) containing 0.05% by mass of Tween 20 was fed and circulated in the flow path for 10 minutes to wash the flow path. Then, with the flow path being filled with PBS buffer (pH 7.4), the assay area was irradiated with laser light (640 nm, 40 μW) from the back side of the metal thin films, and the fluorescence intensity was measured using a photomultiplier tube (PMT) arranged above the assay area. The thus measured value was defined as “signal” (S) at a desmoglein 3 concentration of 100 μg/mL.
(§5) On another front, the fluorescence intensity was also measured by the same procedures as described above, except that a PBS solution containing no desmoglein 3 (0 μg/mL) was fed in place of the PBS solution containing 100 μg/mL of desmoglein 3. The thus measured value was defined as “noise” (N).
(§6) Further, the fluorescence intensity was measured by the same procedures as described above, except that the desmoglein 3 concentration of the fed PBS solution was changed to 10,000 μg/mL, 5,000 μg/mL, 1,000 μg/mL, 200 μg/mL, 50 μg/mL, 10 μg/mL, 3.16 μg/mL, 1 μg/mL, 0.316 μg/mL, 0.1 μg/mL and 0.031 μg/mL. The thus measured values were each defined as “signal” (S) at the respective concentrations.

[5] = biological target: T1, soluble-type human DSG3-mouse IgG2aFc …; assay: SPFS sandwich; immobilized DF151, detection MAB1720; antigen 1,000 pg/mL (µg/mL in the source)
Protocol: as §4, §5, §6

[6] = biological target: T1, soluble-type human DSG3-mouse IgG2aFc …; assay: sandwich ELISA, luminescence over blank; immobilized DF151, detection D219-3; antigen 40 pg/mL
Protocol: as §1, §2, §3

[7] = biological target: T1, soluble-type human DSG3-mouse IgG2aFc …; assay: sandwich ELISA, luminescence over blank; immobilized DF151, detection D219-3; antigen 10 pg/mL
Protocol: as §1, §2, §3

[8] = biological target: T1, soluble-type human DSG3-mouse IgG2aFc …; assay: sandwich ELISA, luminescence over blank; immobilized DF151, detection DF151; antigen 200 pg/mL
Protocol: as §1, §2, §3

- S/N ratio [1]: 55.2
- S/N ratio [2]: 50.3
- S/N ratio [3]: 1
- S/N ratio [4]: 24.4
- S/N ratio [5]: 60.8
- S/N ratio [6]: 0.8
- S/N ratio [7]: 0.9
- S/N ratio [8]: 1.2
B1: DF151 (DF151[I] antibody) (antibody, mouse IgG2b, kappa, V domains shown)
VH: EVQLQQSGPELVKPGASVKISCKASGYSFTAYYMHWVKQSPEKCLEWIGQINPSTGGTTYNQKFKAKATLTVDKSSSTAYMQLKSLTSEDSAVYYCARWGDSWGQGTTLTVSS
VL: DIVLTQSPASLAVSLGQSVTISCRASESVEYYGTSLMQWYQQKPGQPPKLLIYGASDVESGVPARFSGSGSGTDFSLNIHPVEEDDIAMYFCQQSRKVPYTFGSGTKLEIKR
notes: Complete antibody; Biotinylated as detection antibody in ELISA; labeled with Alexa Fluor 647 as detection antibody in SPFS; also called DF151 antibody
